This data set can be described thus: yeast display, Sf9 membrane polyspecificity reagent, FACS + sequencing; frameworks hold sequencing errors. In outline:
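Using colony PCR, genes from sorted yeast display clones were amplified, then sequenced on MiSeq at 2 × 250 and filtered by CDR length. The clones had been stained with 10% biotinylated, detergent-solubilized Sf9 membrane reagent for 1 hour at 4 °C and sorted by FACS into low and high (top ~1%) gates on anti-HA and streptavidin fluorescence. Polyreactivity labels come from the gate of origin.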
For “QVQLVESGGGIVQAGGSLRLSCAASGFIFHRNAMGWYRQAPGKERELVASITKRGGNTYYADSVKGRFTISRDTAKNTDFLQMTSLNPEDTGVYYCATQLWGWDWKRDYWGQATQVTVSS”, the “polyreactivity (PSR sort gate)” value was “high polyreactivity”. As for “QVQLVESGGGIVQAGGSLRLSCAASGFIFLPYAMGWYRQAPGKERELVARISRSGASTYYADSVKGRFTISRDNAKNTVYLQMNSLKPEDTAVYYCNAVTSWPRRDFDYWGQGTQVTVSS”, the entry is “high polyreactivity”; as for “QVQLVESGGGIVQAGGSLRLSCAASGFIFRYYAMGWYRQAPGKERELVAAISWSGGSTYYADSVKGRFTISRDNAKNTVYLQMNSLKPEETAVYYCAAEPTGWVWYAGYGYYWGQGTQVTVSS”, “high polyreactivity”.

For “QVQLVESGGGIVQAGGSLRLSCAASGFTFGDYVMGWYRPAPGNERELVAAITTSGTRTSYADSVKGRFTISRDNAKNTVFLQMNSLKPEDTAVYYCAAEHTNYYYFWQAHYYWGPGTQVTVSS”, the “polyreactivity (PSR sort gate)” value is recorded as “high polyreactivity”. “QVQLVESGGGIVQAGGSLRLSCAASGFTFHTYAMGWYRQAPGKERELVAAISYSGGNTYYADSVKGRFTISRDNAMNTVYLQMNSLKPEDTAVYYCAAQSYYRYYWGQGTQVTVSS”: the “polyreactivity (PSR sort gate)” value was “high polyreactivity”. Take “QVQLVESGGGIVQAGGSLRLSCAASGFTFNRNAMVWYRQAPGKERELVAAISWSGGSTYYADSVKGRFTISRYNAKNTVYLQMNSLKPEDTAVYYCAKGYRRVYGPFYYWGQGTQVTVSS”: the “polyreactivity (PSR sort gate)” value is “low polyreactivity”. As for “QVQLVESGGGIVQAGGSLRLSCAASGFTFRTYTQGWYRQAPGKERELVAAIRSSGGGTYYADSVKGRFTISRDNAKNTVYLQMNSLKPEDTAVYYCIAVRYNSVGYDFWGQGTQVTVSS”, the entry is “high polyreactivity”; as for “QVQLVESGGGIVQAGGSLRLSCAASGFTFYLYAMGWYRQAPGKERELVAAISRSGGYTYYADSVKGRFSISRDNAQNTVYLQMNSLKPEDTAVYYCNARWRSGPRAYDYWGQGTQVTVSS”, “high polyreactivity”; as for “QVQLVESGGGIVQAGGSLRLSCAASGFTYSDYAMGWYRQAPGKERELVAGISSGGSTNYADSVKGRFTISRDNAKYTVYFQMNSLKQVDTAVYYCAAYLYATWSYFFTWLDFWGQGTKVTVSS”, “high polyreactivity”.

Take “QVQLVESGGGIVQAGGSLRLSCAASGGTFPRYAKGWYRQAPGKEREFVAAISGSGGSTYYADSVKGRFTISRDNAKNTVLLQMNSLKPEDTAVYYCNKVPVYTPSYYWGQGSQVTVSS”: the “polyreactivity (PSR sort gate)” value is recorded as “low polyreactivity”. Under “QVQLVESGGGIVQAGGSLRLSCAASGIIFGYYAMGWYRQAPGKEREMVAAINQDGSSTYYADSVKGRFTISRDYAKNTVYLQMNSLKPEDTAVFYCNARGVPRQDARMGYWGQGTQVTVSS” stands “low polyreactivity”; under “QVQLVESGGGIVQAGGSLRLSCAASGIIFHFNDMGWYRQAPGKERELVAAITSGGSTNYADSVKGRFTISRDNAKNTVDLQMNSLKPEDTAVYYCAARRGLRLFAYRHGYWGQGTQVTVSS”, “low polyreactivity”. For the sequence “QVQLVESGGGIVQAGGSLRLSCAASGIIFLDYVMVWYRQAPGKERELVAAINSGGSTYYADSVKGRFTISRDNAKNTVYLQMNSLIPEDTAVYYCAADDYYKFDYWGQGTQVTLSS”, the “polyreactivity (PSR sort gate)” value was “low polyreactivity”.

For the sequence “QVQLVESGGGIVQAGGSLRLSCAASGIIFWNYAMGWYRQAPGKERELVAAITDGGSTYYADSVKGRFTISRDNEKNTVYLQMNSLKPEDNAVYYCNTDWAYLSDYWGQGTQVTVSS”, the “polyreactivity (PSR sort gate)” value is given as “low polyreactivity”. Regarding “QVQLVESGGGIVQAGGSLRLSCAASGITFGSYVMGWYRQAPGKERELVAAINIGGGTYYADSVKGRFTISRDNAKNTVYLQMISLKPEDTAVYYCARDFYWYYRAARLDYWGQGTQVTVSS”, the “polyreactivity (PSR sort gate)” value is reported as “high polyreactivity”. For the sequence “QVQLVESGGGIVQAGGSLRLSCAASGITFKGYTMGWYRQAPGKERELVATISRGGRTYADSVKGRFTISRDNAKNTVYLQMNSLKPEDTAVYYCAAQAERYGYEYWGQGTQVTVSS”, the “polyreactivity (PSR sort gate)” value is listed as “low polyreactivity”. As for “QVQLVESGGGIVQAGGSLRLSCAASGITLINYAMGWYRQAPGKERELVAAISTSGSSTYYADSVKGRFTISRDNAKNTVYLQMNSLKPEDTAVYYCAAELDVYSLFGYWGQGTQVTVSS”, the entry is “low polyreactivity”; as for “QVQLVESGGGIVQAGGSLRLSCAASGLIFSRNAMGWYRQAPGQERELVAAISTGGSTYYADSVKGRFTISRDNAKNTGYLQMNSLKPEDTAVYYCAAAPGYIYEYWGQGTQVTVSS”, “low polyreactivity”. In the case of “QVQLVESGGGIVQAGGSLRLSCAASGLTFQVNAMGWYRQAPGKERELVAGITFSGGSTYYADSVKGRFTISRDNAKNTVYLQMNSLKPEDTAVYYCAADARFYAYYYWGQGTQVTVSS”, the “polyreactivity (PSR sort gate)” value is “low polyreactivity”.

On to “QVQLVESGGGIVQAGGSLRLSCAASGLTFRRNAMGWSRQAPGKERELVAAISSGGVRTYYADSVKGRFTISRDNAKNTVYLQMNSLKPEDTAVYYCAKDDLLVVRNVWFDYWGQGTQVTVSS”, for which the “polyreactivity (PSR sort gate)” value is “low polyreactivity”. For “QVQLVESGGGIVQAGGSLRLSCAASGNIFGGYAMGWYRQAPGKERELVAAISQRGGITYYADSVKGRFTISRDNAKNTVYLQMNSLKPEDTAVFYCAKRGPYGWYGAYDYWGQGTQVTVSS”, the “polyreactivity (PSR sort gate)” value was “low polyreactivity”. Under “QVQLVESGGGIVQAGGSLRLSCAASGRIFATYAMGWYRQAPGKERELVAAIRSDGNTKYADSVKGRFTISRDNAKNTVYLQMNSLKPEDTAVYYCAAYARYAGVLYDYWGQGTQVTVSS” stands “high polyreactivity”. As for “QVQLVESGGGIVQAGGSLRLSCAASGRIFAYNAMGWYRQAPGKDRELVAAISSGGNTYYADSVKGRFTISRDNAKNTVYLQMYRLKPEDTAVYYCNAGVGWHRYYSNYDYWGQGTQVTVSS”, the entry is “low polyreactivity”. For “QVQLVESGGGIVQAGGSLRLSCAASGRIFDRYAMGWYRQAPGTERELVAAITGSGGRTYYADSVKGRFTISRDNAKNTVYLQMNSLKPEDTAVYYCARALGQRGYVYWGQGTQVTVSS”, the “polyreactivity (PSR sort gate)” value was “high polyreactivity”.

“QVQLVESGGGIVQAGGSLRLSCAASGRIFDWYVMGWYRQAPGKERELVAAINSGVSTKYADSVKGRFTISRDNAKNTVYLQMNSLKPEDTAVYYCAAQSFSDYRRTGRKSSYYYWGQGTLVTVSS”: the “polyreactivity (PSR sort gate)” value is reported as “low polyreactivity”.

In the case of “QVQLVESGGGIVQAGGSLRLSCAASGRIFGIYAMGWYRQAPGKERELVASITDGTITNYADSVKGRFTISRDNAKYTVYLQMNSLKPEDTAVYYCAAGTQAHAYVVRPIEMDYWGQGTQVTVSS”, the “polyreactivity (PSR sort gate)” value is recorded as “low polyreactivity”. Regarding “QVQLVESGGGIVQAGGSLRLSCAASGRIFGYYAMGWYIQAPGNERELVASISSSGGSTYYADSVKGRFTISRDNAKNTVYLQMKSLKPEDTAVYYCNTASNRYQGWRAEFDYWGQGSQVTVSS”, the “polyreactivity (PSR sort gate)” value is listed as “low polyreactivity”. Regarding “QVQLVESGGGIVQAGGSLRLSCAASGRIFRGYGMGWYRQAPGKERELVAAITSRGGSTYYADSVKGRFTISRDNAKNTVYLQMNSLKPEDTAVYYCAAVGVGYPGHKYYYWGQGTQVTVSS”, the “polyreactivity (PSR sort gate)” value is “high polyreactivity”. With “QVQLVESGGGIVQAGGSLRLSCAASGRIFRSYTMGWYRQAPGKERELVAAISWTGGRTYYADSVKGRFTISRDNAKNTVYLQMNSLKPEDTAVYYCAATNRYYIYDYWGQGTQVTVSS”, the “polyreactivity (PSR sort gate)” value is “high polyreactivity”. As for “QVQLVESGGGIVQAGGSLRLSCAASGRIFSKNTMGRYRKAPGKERELVAAIRSRAGSTYYADSVKGRFTISRDNAKNTVYLQMNSLIPEDTAVYYCAVPWFRSVDFDYWGQGTQVTVSS”, the entry is “low polyreactivity”. As for “QVQLVESGGGIVQAGGSLRLSCAASGRIFVGYAMVWYRQAPGKERELVAAISRGGSTNYADSVKGRFTISRDNAKNTVYLQMNSLKPEDTAVYYCAKTYRTRWWGNGGDFWGQGTQVTVSS”, the entry is “high polyreactivity”; as for “QVQLVESGGGIVQAGGSLRLSCAASGRIISGYVMGWYRQAPGKERELVAAITRSGGSTNYADSVKGRFTISRDNAKNTVYLQMNSLKPEDTAVYYCNAVGRYYRVANGNYDYWGQGTQVTVSS”, “high polyreactivity”. In the case of “QVQLVESGGGIVQAGGSLRLSCAASGRIIYNYGLGWYRQAPGKERELVARITTGGRTNYADSVKGRFTISRDNAKNTVYVQMNSLKPEDTAVYFCNAVGYHSRWYYYNYDYWGQGTQVTVSS”, the “polyreactivity (PSR sort gate)” value is on record as “low polyreactivity”. As for “QVQLVESGGGIVQAGGSLRLSCAASGRILVSNTMGWYRQAPGKERELVAGIRRGGSTDYADSVKGRFTISRDNAKNTVYLQMNSLKPEDTAVYYCNARYSNGYTKLGYWGQGTQVTVSS”, the “polyreactivity (PSR sort gate)” value is listed as “low polyreactivity”. As for “QVQLVESGGGIVQAGGSLRLSCAASGRNFVRNAMGWYRQAPGKERELVAAISGGGGNTYYADSVKGRFTISRDNAKNTVYLQMYSLKPEDTAVYYCNALAYGYWYRYYYWGLGTQVTVSS”, the entry is “high polyreactivity”. Regarding “QVQLVESGGGIVQAGGSLRLSCAASGRTFLYNAMGWYRQAPGKERELVAAISKSGGSTYYADSVKGRFTISRDNAKNTVYLLMNSLKPEESAVYYCAKVGGYRGRPSFGDWGQGTQVTVSS”, the “polyreactivity (PSR sort gate)” value was “high polyreactivity”. Under “QVQLVESGGGIVQAGGSLRLSCAASGRTFMLYAMGWYRQAPGKERELVASIDRNGGRTYYADSVKGRFTISRDNAKNTVYLQMNSLIPEDTAVYYCAARWYDYGYWGQGTQVTGSS” stands “high polyreactivity”. As for “QVQLVESGGGIVQAGGSLRLSCAASGRTFVVNDMGWYRQAPGKERELVAAINYNAGSTFYADSVKGRFTISRDNAKNTVYLQMNSLKPEDTAVYYCATVVYGYVEYDYWGQGTEVTVSS”, the entry is “low polyreactivity”; as for “QVQLVESGGGIVQAGGSLRLSCAASGSIFDNAMGWYRQAPGKERELVAAITSGGITNYADSVKGRFTISRDNAKNTVYLQMNSLKPEDTAVYYCNTLSPTQTKYDYWGQGTKVTVSS”, “low polyreactivity”; as for “QVQLVESGGGIVQAGGSLRLSCAASGSIFDSYTMGWYRQAPGKERELVATINRSGGSTYYADSVKGRFTISRDTAKNTVYLQMNSLKPEDTAVYYCATVYPYTPYSSWRSKYDYWGQGTQVTVSS”, “low polyreactivity”. Under “QVQLVESGGGIVQAGGSLRLSCAASGSIFGFYALGWYRQAPGKERELVAAISNSAGSTFYADSVKGRFTISRDNAKNTVYLQMNSLKPEDTAVYYCAAEGEFSDWQHQYVVYWYDYWGQGTQVTVSS” stands “high polyreactivity”.

These data come from the nanobody polyreactivity screen of Harvey et al. (2022).
